Results published in the supplement of paper PMC10567573.

B1: TRIM39 (parent)
chain: YPCVLATEGFTSGRHYWEVEVGDK

Variants of: B1
Test: protein stability index of a GFP-peptide fusion (GPS, HEK-293T) (PSI 1-6); higher = more stable
Conditions: c terminus: a fixed tail appended
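Also: lentivirally expressed fusions sorted by FACS into six bins by GFP to DsRed ratio, PSI derived from sequencing read proportions per bin multiplied by bin number.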

Variant	protein stability index
YPCVLATEGFTSGRHYWEVEEGDK [V21E]	1.77
YPCVLATEGFTSGRHYWEVEFGDK [V21F]	1.95
YPCVLATEGFTSGRHYWEVEGGDK [V21G]	1.84
YPCVLATEGFTSGRHYWEVEHGDK [V21H]	1.86
YPCVLATEGFTSGRHYWEVEIGDK [V21I]	2.24
YPCVLATEGFTSGRHYWEVEKGDK [V21K]	2.15
YPCVLATEGFTSGRHYWEVELGDK [V21L]	1.57
YPCVLATEGFTSGRHYWEVEMGDK [V21M]	1.9
YPCVLATEGFTSGRHYWEVENGDK [V21N]	2.03
YPCVLATEGFTSGRHYWEVEPGDK [V21P]	1.43
YPCVLATEGFTSGRHYWEVEQGDK [V21Q]	1.87
YPCVLATEGFTSGRHYWEVERGDK [V21R]	2.05
YPCVLATEGFTSGRHYWEVESGDK [V21S]	1.88
YPCVLATEGFTSGRHYWEVETGDK [V21T]	1.6
YPCVLATEGFTSGRHYWEVEWGDK [V21W]	1.92
YPCVLATEGFTSGRHYWEVEYGDK [V21Y]	2.14
YPCVLATEGFTSGRHYWEVEVADK [G22A]	2.05
YPCVLATEGFTSGRHYWEVEVCDK [G22C]	1.66
YPCVLATEGFTSGRHYWEVEVDDK [G22D]	1.92
YPCVLATEGFTSGRHYWEVEVEDK [G22E]	1.88
YPCVLATEGFTSGRHYWEVEVFDK [G22F]	1.53
YPCVLATEGFTSGRHYWEVEVHDK [G22H]	1.95
YPCVLATEGFTSGRHYWEVEVIDK [G22I]	1.67
YPCVLATEGFTSGRHYWEVEVKDK [G22K]	2.5

Variant	protein stability index
YPCVLATEGFTSGRHYWEVEVLDK [G22L]	1.81
YPCVLATEGFTSGRHYWEVEVMDK [G22M]	1.58
YPCVLATEGFTSGRHYWEVEVNDK [G22N]	1.91
YPCVLATEGFTSGRHYWEVEVPDK [G22P]	1.85
YPCVLATEGFTSGRHYWEVEVQDK [G22Q]	2.38
YPCVLATEGFTSGRHYWEVEVRDK [G22R]	1.75
YPCVLATEGFTSGRHYWEVEVSDK [G22S]	2.19
YPCVLATEGFTSGRHYWEVEVTDK [G22T]	1.76
YPCVLATEGFTSGRHYWEVEVVDK [G22V]	1.82
YPCVLATEGFTSGRHYWEVEVWDK [G22W]	2.37
YPCVLATEGFTSGRHYWEVEVYDK [G22Y]	1.98
YPCVLATEGFTSGRHYWEVEVGAK [D23A]	1.79
YPCVLATEGFTSGRHYWEVEVGCK [D23C]	1.71
YPCVLATEGFTSGRHYWEVEVGEK [D23E]	1.85
YPCVLATEGFTSGRHYWEVEVGFK [D23F]	1.58
YPCVLATEGFTSGRHYWEVEVGGK [D23G]	1.82
YPCVLATEGFTSGRHYWEVEVGHK [D23H]	2.98
YPCVLATEGFTSGRHYWEVEVGIK [D23I]	1.76
YPCVLATEGFTSGRHYWEVEVGKK [D23K]	1.02
YPCVLATEGFTSGRHYWEVEVGLK [D23L]	2.51
YPCVLATEGFTSGRHYWEVEVGMK [D23M]	1.57
YPCVLATEGFTSGRHYWEVEVGNK [D23N]	3
YPCVLATEGFTSGRHYWEVEVGPK [D23P]	1.43
